B1: MB7 (ssDNA)
DNA: TCGCACATTCCGCTTCTACCGGGGGGGTCGAGCTGAGTGGATGCGAATCTGTGGGTGGGCCGTAAGTCCGTGTGTGCGAATGTGCGA
B2: MB4 (ssDNA)
DNA: TGCAGCTAAGCAGGCGGCTCACAAAACCATTCGCATGCGGCTGCA
B3: SPN-E (ssDNA)
DNA: TGCAGCTAAGCAGGCGGCTCACAAAACCATTCGCATGCGGCGCTGC
B4: MB9 (ssDNA)
DNA: TCGCACATTCCGCTTCTACCGGGGGGGTCGAGCTGAGTGGATGCGAATCTGTGGGTGGGCCGTAAGTCCGTGTGTGCGAAAATGTGCGA
B5: MB6 (ssDNA)
DNA: TGCAGCTAAGCAGGCGGCTCACAAAACCATTCGCATGCGGCGCTGCA
B6: SPN-E* (structured_DNA)
DNA 1: TGCAGCTAAGCAGGCGGCTCACAAAACCATTCGCATGCGGC
DNA 2: CTTAGCTGCA

Legend:
Ovomucoid = Ovomucoid (UniProt P01005 P01005:25-210); assay: ovomucoid spiked in mug cake; settings: label: 5'-fluorescein, 3'-Dabcyl; hairpin
Sequence of Ovomucoid (P01005 25-210, one chain of several): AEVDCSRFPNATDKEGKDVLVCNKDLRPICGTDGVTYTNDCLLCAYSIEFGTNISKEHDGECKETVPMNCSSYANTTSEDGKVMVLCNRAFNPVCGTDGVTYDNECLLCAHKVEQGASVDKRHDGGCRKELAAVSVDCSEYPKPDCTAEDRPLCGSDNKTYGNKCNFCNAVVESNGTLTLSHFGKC

Lysozyme (egg white) [1] = biological target: T1, Lysozyme (egg white) (UniProt P00698 P00698:19-147); assay: fluorescence turn-on; lysozyme spiked into chocolate cake; settings: tags: Pierce (Thermo Scientific); label: 5'-fluorescein, 3'-Dabcyl; hairpin
T1 sequence (P00698 19-147, one chain of several): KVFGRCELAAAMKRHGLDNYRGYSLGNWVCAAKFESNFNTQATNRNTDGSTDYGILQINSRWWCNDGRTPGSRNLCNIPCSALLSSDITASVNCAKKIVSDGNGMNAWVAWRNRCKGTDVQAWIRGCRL
Experimental: A set of binding assays were performed using lysozyme SPNs (MB4, MB5 and MB6). Experimental procedures: Food samples were homogenized as stated above—generally 2.5 ml buffer was added to 0.5 food sample. The samples were homogenized and centrifuged. 25 ul of the sample was added to a 96 flat bottom well plate. The specific SPN was resuspended to a 100 uM concentration and 25 ul of the SPN was added to the plate—final concentration 50 uM. The samples were immediately read with the GloMax Promega plate reader using the blue laser. (detection was quantified as the intensity of FITC minus the background—buffer alone and non-spiked samples).

Bovine serum albumin = Bovine serum albumin (Bos taurus, UniProt P02769 P02769:25-607); assay: fluorescence turn-on; minimal signal with BSA negative control; settings: tags: Sigma Aldrich; label: 5'-fluorescein, 3'-DABCYL; hairpin
Sequence of Bovine serum albumin (P02769 25-607, one chain of several): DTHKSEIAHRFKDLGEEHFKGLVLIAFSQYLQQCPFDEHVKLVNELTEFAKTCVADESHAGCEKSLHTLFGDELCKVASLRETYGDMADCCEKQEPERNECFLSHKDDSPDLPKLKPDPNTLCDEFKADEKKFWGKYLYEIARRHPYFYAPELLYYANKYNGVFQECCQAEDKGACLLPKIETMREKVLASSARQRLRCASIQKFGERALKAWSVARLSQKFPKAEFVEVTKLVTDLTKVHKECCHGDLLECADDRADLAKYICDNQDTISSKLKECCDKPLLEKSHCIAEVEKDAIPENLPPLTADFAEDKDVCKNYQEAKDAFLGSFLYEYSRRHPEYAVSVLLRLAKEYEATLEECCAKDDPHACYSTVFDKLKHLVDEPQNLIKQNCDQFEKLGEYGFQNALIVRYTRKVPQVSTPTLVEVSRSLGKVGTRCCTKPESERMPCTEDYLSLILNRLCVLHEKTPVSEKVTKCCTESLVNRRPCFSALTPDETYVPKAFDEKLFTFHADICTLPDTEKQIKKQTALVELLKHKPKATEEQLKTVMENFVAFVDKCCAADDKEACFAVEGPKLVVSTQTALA
Experimental: (§1) Protein samples are diluted to specified concentrations in PBS. The signaling polynucleotide solutions are prepared at 200 μM in 10 mM TRIS-HCl, pH 7.5, heated to 99° C. for 3 minutes and then cooled to room temperature for 20 minutes. Volumes of 60 μL of protein solutions are added to the wells of a 96-well plate. Signaling polynucleotides are added to the wells as soon as possible after the addition of the protein samples. Fluorescence readings are taken immediately with all readings obtained at 25° C. with an excitation wavelength of 495 nm and emission monitored at the fluorescence peak of 519 nm. The signaling polynucleotides were synthesized by TriLink Biotechnologies (San Diego, Calif.), pure lysozyme was obtained from Pierce (Thermoscientific) and BSA was obtained from Sigma Aldrich.
(§2) The data plotted in FIG. 9A indicate that SPN-E* at a concentration of 100 μM detects lysozyme at a 5 ng/mL concentration and increases the detection level to 3 pg/sample. The data plotted in FIG. 9B indicate that SPN-E can be used to detect lysozyme in unprocessed egg white which was diluted 1:20 (sample size was 30 μL). SPN-E gave a minimal signal with BSA as the negative control protein.

Lysozyme (egg white) [2] = biological target: T1, Lysozyme (egg white); assay: fluorescence turn-on; detects lysozyme 0.6-1200 ng/mL; 12 uM SPN; PBS/Tris pH 7.5, 25 C; settings: tags: Pierce (Thermo Scientific); label: 5'-fluorescein, 3'-Dabcyl; hairpin
Experimental: as §1
An assay was performed to obtain a dose curve (12 μM of detection of signaling polynucleotide SPN-E per sample). The results are shown in FIG. 8 and indicate that SPN-E detects lysozyme concentrations ranging from 0.6 ng/mL to 1200 ng/mL, translating to less than 50 pg of lysozyme per sample.

Lysozyme (egg white) [3] = biological target: T1, Lysozyme (egg white); assay: fluorescence turn-on; 100 uM SPN detects 5 ng/mL lysozyme; 25 C; not altered by milk or BSA (FIG. 10); settings: tags: Pierce (Thermo Scientific); partial duplex with annealed 10-nt quencher linker at 5' end
Experimental: as §1, §2

Binder | binding result (Ovomucoid) | binding result (Lysozyme (egg white) [1]) | also measured
B1 | no binding | – | –
B2 | – | binds | –
B3 | – | – | binding result (Bovine serum albumin): no binding; binding result (Lysozyme (egg white) [2]): binds
B4 | no binding | – | –
B5 | – | binds | –
B6 | – | – | binding result (Lysozyme (egg white) [3]): binds
